Measured values: patent publication US6613506B1, “Compositions and methods for inhibiting human immunodeficiency virus infection by down-regulating human cellular genes” (Subsidiary No. 3, Inc., priority 2000, dated 2003)

Each molecule was assayed on HIV-1IIIB (assay: Selection of GSEs from HeLa cell library using productive infection of CEM-ss cells).
Assay type: cell-based
Method: Additionally, a normalized RFE library made from HeLa cells was transferred into CEM-ss cells and the neo resistant population was infected with TCID50 of 3000/10^6 cells of HIV-1IIIB. This RFE library was represented by 50×10^6 independent recombinant clones. Four and seven days after infection, a purified anti-CD4 monoclonal antibody, L77 (available from Becton Dickinson), was added at 5 Φg/mL to prevent syncytia formation. Syncytia formation is thought to be prevented by blocking the interaction between gp120 expressed on the surface of an infected cell and CD4 on the surface of an uninfected cell. […] At 10-12 days after infection, CD4^+, p24^− cell population representing uninfected cells were sorted. Genomic DNA from the CD4^+, p24^− cells was purified and used for PCR amplification of inserts with the vector-derived primers. The amplified mixture was digested with EcoRI and BamHI and cloned back into the retroviral vector. The selection was repeated for additional rounds.
The selection of GSEs from HeLa cell library using productive infection of CEM-ss cells isolated […] additional nucleic acid molecules which have substantial sequence identity with other cellular genes.
The selection of GSEs from a HeLa cell library using productive infection of CEM-ss cells isolated 21 additional nucleic acid molecules which have substantial sequence identity with other cellular genes. […] The complement of SEQ ID NO:25 is represented by SEQ ID NO:26. […] The complement of SEQ ID NO:27 is represented by SEQ ID NO:28. […] The complement of SEQ ID NO:29 is represented by SEQ ID NO:30. […] The complement of SEQ ID NO:31 is represented by SEQ ID NO:32. […] The complement of SEQ ID NO:33 is represented by SEQ ID NO:34. […] The complement of SEQ ID NO:35 is represented by SEQ ID NO:36. […] The complement of SEQ ID NO:37 is represented by SEQ ID NO:38. […] The complement of SEQ ID NO:39 is represented by SEQ ID NO:40. […] The complement of SEQ ID NO:41 is represented by SEQ ID NO:42. […] The complement of SEQ ID NO:43 is represented by SEQ ID NO:44. […] The complement of SEQ ID NO:45 is represented by SEQ ID NO:46. […] The complement of SEQ ID NO:47 is represented by SEQ ID NO:48. […] The complement of SEQ ID NO:49 is represented by SEQ ID NO:50. […] The complement of SEQ ID NO:51 is represented by SEQ ID NO:52. […] The complement of SEQ ID NO:53 is represented by SEQ ID NO:54. […] The complement of SEQ ID NO:55 is represented by SEQ ID NO:56. […] The complement of SEQ ID NO:57 is represented by SEQ ID NO:58. […] The complement of SEQ ID NO:59 is represented by SEQ ID NO:60. […] The complement of SEQ ID NO:61 is represented by SEQ ID NO:62. […] The complement of SEQ ID NO:77 is represented by SEQ ID NO:78. […] The complement of SEQ ID NO:87 is represented by SEQ ID NO:88. […] The complement of SEQ ID NO:99 is represented by SEQ ID NO:100. […] The complement of SEQ ID NO:101 is represented by SEQ ID NO:102. […] The complement of SEQ ID NO:103 is represented by SEQ ID NO:104. […] The complement of SEQ ID NO:105 is represented by SEQ ID NO: 106. […] The complement of SEQ ID NO:107 is represented by SEQ ID NO:108. […] The complement of SEQ ID NO:109 is represented by SEQ ID NO:110. […] The complement of SEQ ID NO:111 is represented by SEQ ID NO:112. […] The complement of SEQ ID NO:113 is represented by SEQ ID NO:114. […] The complement of SEQ ID NO:115 is represented by SEQ ID NO:116. […] The complement of SEQ ID NO:117 is represented by SEQ ID NO:118.

Molecule | HIV-suppressive activity of the GSE and active orientation
CF-321: GSE, SEQ ID NO:29, sense; rat guanine nucleotide releasing protein gene (sense AGTTCCTTTTACTTTTTAATCTTTCCTTAAAGCACGCCTGTGTTGGGCTAACGA; listed as Homo sapiens) | interferes with HIV replication in the sense orientation
CF-332: GSE, SEQ ID NO:33, antisense; lymphocyte-specific protein 1 gene (antisense AACACCCATAGTAGGCCTAAAAGCAGCCACCAATTAAGAAAGC; listed as Homo sapiens) | interferes with HIV replication as an antisense molecule
CF-528: GSE, SEQ ID NO:43, sense; GTP binding protein gene (sense AGTGCTTTAACGATGTCACAGCTATCATTTACGTCGCAGCCTGCAGTAGCTACAACATG; chemistry not fully specified; listed as Homo sapiens) | interferes with HIV infection in the sense orientation
CF-537: GSE, SEQ ID NO:25, sense; human bone morphogenic protein-1 gene (sense GGTCCACCATGGCCCTGCTGCACTCCGGCCGCGTCCTCCCCGGGATCGCCGCCGCCT; chemistry not fully specified; listed as Homo sapiens) | interferes with the HIV life cycles in the sense orientation
CF-266: GSE, SEQ ID NO:15, antisense; human eIF4B gene (nucleic acid, listed as Homo sapiens) antisense: GCCGTTCTTCTACTTCTCTTTCTCAAGCAGCAGTGTCAACAGGCTTTGCCCCTCCAAAGATAGAAGCAGCTCGAGTGGACTGGGAGGTACTAGCAGA | suppresses HIV infection as an antisense molecule
CF-210: GSE, SEQ ID NO:14, sense; herpesvirus-associated ubiquitin-specific protease gene (nucleic acid, listed as Homo sapiens) sense: GCATTACAAAGAGTGTTCTATGAATTACAGCATAGTGATAAACCTGTAGGAACAAAAAAGTTAACAAAGTCATTTGGGTGGGAAACTTTAGATAGCTTCATGCAACATGATGTT | suppresses HIV infection as a sense molecule
CF-531: GSE, SEQ ID NO:47, antisense; cell adhesion molecule L1 gene (nucleic acid, listed as Homo sapiens, chemistry not fully specified, cell adhesion molecule L1 gene) antisense: CTGGGTCCCCAAGGAGGGCCAGTGCAACTTCAGGTTCCATATCTTGTTCAAAGCCTTGGGAGAAGAGAAGGGTGGGGCTTCCCTTTCGC | interferes with HIV replication as an antisense molecule
CF-302: GSE, SEQ ID NO:16, antisense; human CD44 gene (nucleic acid, listed as Homo sapiens) antisense: GATCCCTGGGCGCGGGGCAGGGGCCGGCGGAGGACGGGACGAGGATGGCGGACCGAACCTGGCAGAGGCTGGG | suppresses HIV infection as an antisense molecule
CF-311: GSE, SEQ ID NO:12, antisense; human protein tyrosine phosphatase gene (nucleic acid, listed as Homo sapiens) antisense: GGGGGCTCTGTTTGGTGGTCTCTCTAGCTGCACTGGTCTATCAAGCTGTTGGCTGGTCTCTCTCTCTGGCTGGGGATC | suppresses HIV infection as an antisense molecule
CF-529: GSE, SEQ ID NO:45, antisense; importin beta subunit gene (nucleic acid, listed as Homo sapiens) antisense: GGAGTGTGCACGGATGCTGAATGTTTGGGAATGAGAGGATGAGTGAGTGAGGCTTGAAAACACACCACATTGAAAATCCTGCCACAGCAGCAGCCGCAGCCGCCAACAGCAGCGCTGTTAGTGAGCTAAGTAAGC | interferes with HIV replication as an antisense molecule
CF-280: GSE, SEQ ID NO:20; portion of an unknown human cellular gene (nucleic acid, listed as Homo sapiens) DNA: GTGCCGTATGAATATACAAAATAATGGCATCAGGGATCCCTGTGCTCATTCACATAGCTAGGGACAACAGGATTTCATCTCCAGGAAACTCAGTAGTATACTTTTGTGACTTCTCTCTTTAAGCACCAAAGCATACTTTCAGGGAAAAACAAAAAAGAGATTAAAAATGTAAAGAATTCTTTCATGCTGCTTGGAGAGGTGAGGGAAGGTAGCCCACTGAAAGTGACAGAGAA | selected in CEM-ss cells
CF-317: GSE, SEQ ID NO:17, antisense; human phosphatidylinositol 3-kinase gene (nucleic acid, listed as Homo sapiens) antisense: CCAAGCTTCCTATCTTAAGCTGGGCGTTGATATCCAGGTCACAACTATAGATGTAGTGAAACTTCTCTGCTTCCCCCATCGCACCGTCTGCAAAGGTACCACC | suppresses HIV infection as an antisense molecule
CF-004: GSE, SEQ ID NO:7, sense; human 2-oxoglutarate dehydrogenase gene (nucleic acid, listed as Homo sapiens) sense: GCGCAAAGCACGCGACATGGTGGGGCAGGTGGCCATCACAAGGATTGAGCAGCTGTCGCCATTCCCCTTTGACCTCCTGCTGAAGGAGGTGCAGAAGTACCCCAA | suppresses HIV infection as a sense molecule
CF-313: GSE, SEQ ID NO:13, sense; human protein tyrosine phosphatase gene (nucleic acid, listed as Homo sapiens) sense: CATTTTGTTACATAAGGATGACTTTTTTATACAATGGAATAAATTATGGCATTTCTATTGAAATTTCAACGCTTTTGTTTCTTTGGCAACCACAC | suppresses HIV infection as a sense molecule
CF-204: GSE, SEQ ID NO:9, antisense; human calnexin gene (nucleic acid, listed as Homo sapiens) antisense: GGTTGTCAATCACAGGTCGCCAGGAGACACCACATCCAGGAGCTGACTCACATCTAGGGTTGGCAATCTGAGGAGCCTCCCATTCTCCATCCATGTCTTCATCCCAA | suppresses HIV infection as an antisense molecule
CF-273: GSE, SEQ ID NO:11, sense; eukaryotic translation initiation factor 3 gene (nucleic acid, listed as Homo sapiens) sense: GCTCGTCAGTGTCCACCCCTCCTCGCAACTCCAGGCGCTCCTTTTTCTGCTCCATATAGAGCTCCTGGGCCATTTTCCGGTACTTCCGGAAATCTTCCATCATGGTGCGCCTTC | suppresses HIV infection as a sense molecule
CF-545: GSE, SEQ ID NO:49, antisense; U-snRNP associated cyclophilin gene (nucleic acid, listed as Homo sapiens) antisense: CTTCTTGGTGGTGTTCTTGAGTAAGATAATCTGGACTGGCCCCCGTCTTTGCTTCCCTGCCTGCTGCTGCCCCATTTGATCAAGAGACCATGGAAGTGTCAGAGATTCAGAATCCAAGATTGTCTTTAAGTTTTCAACTGTAAATAAAGTTTTTTTGTATGCGTAAAAAAAGCTCGTGCCT | interferes with HIV replication as an antisense molecule
CF-286: GSE, SEQ ID NO:18, sense; human elongation factor-1α gene (nucleic acid, listed as Homo sapiens) sense: CAGTTGGGGTGGGTGTCATCAAAGCAGTGGACAAGAAGGCTGCTGGAGCTGGCAAGGTCACCAAGTCTGCCCAGAAAGCTCAGAAGGCTAAATGAATATTATCCCTAATACCTGCCACCCCACTCTTAATCAGTGGTGGAAGAAC | suppresses HIV infection as a sense molecule
